{"source": "paper PMC3741120", "about": "“A Sperm–Plasma β-N-Acetyl-D-Hexosaminidase Interacting with a Chitinolytic β-N-Acetyl-D-Hexosaminidase in Insect Molting Fluid” (PLoS ONE, 2013)", "proteins": {"B1": {"name": "OfHex3 (Ostrinia furnacalis) (protein)", "chain": "NENEIKDPTPIVYEPSWVFKCIPNVGCQRAAHPQSMMTTNSSHVFYDSIDLCRTVCGRFGGIWPKPLTAGLSMQTVQMHPTHLRYDLSDVPAEARELIAQMTQVASSNLLAECRGNVTEVVDTPVVVYLVVTSENLDLTWDTDEKYDLDVQTKNQKVSVTITAATVYGARHGLETFTQLVTADRPEYSDQTRCALRVISGARIKDYPAYRHRGLVLDTSRHFIPMKDIKRTIDGMAASKLNVFHWHVTDSHSFPLESTRVPQFTRYGAYSSSEIYSAEEVRQLIKYAQIRGVRVVIEIDSPAHAGNGWQWGQDYGFGDLAVCVNTEPWRGLCIQPPCGQLNPANPTMYRVLRNLYKDLAEALPKPALFHMGGDEVFFPCWNSSEQIRAYMQEKGLNTTTEGFLRLWSEFHETILSIWDEELKAIGTDAQPVILWSSALTKSNYVQRFLNKDRYVIEVWEPLDSPLLMELLRLGYRTISVPKDVWYLDHGFWGSTKFSNWRRMYAYILPKSQHMLGGEVAMWSEYVDKEVLDTRIWPRAAAVAERLWADPMSTASAAEPRLQRFRSRLQARGLRPDAMSPAWCEQHDGRCL", "notes": "mature protein without signal peptide (residues 1-18 removed; ORF 609 residues); C-terminal 6xHis, N-terminal alpha-factor secretion signal; Pichia pastoris GS115; glycosylated, 75 kDa on SDS-PAGE"}}, "key": {"purified protein [1]": {"substrate": "CC(=O)N[C@H]1[C@H](Oc2ccc([N+](=O)[O-])cc2)O[C@H](CO)[C@@H](O)[C@@H]1O", "assay": "purified protein", "assay_type": "biochemical, Ostrinia furnacalis", "conditions": "Britton-Robinson buffer (pH of kinetics not given), 25°C, 30 min"}, "purified protein [2]": {"substrate": "CC(=O)N[C@H]1[C@H](Oc2ccc([N+](=O)[O-])cc2)O[C@H](CO)[C@H](O)[C@@H]1O", "assay": "purified protein", "assay_type": "biochemical, Ostrinia furnacalis", "conditions": "Britton-Robinson buffer (pH of kinetics not given), 25°C, 30 min"}}}
{"protein": "B1", "values": [{"measurement": "Km", "setting": "purified protein [1]", "value": 1627, "unit": "µM"}, {"measurement": "kcat", "setting": "purified protein [1]", "value": 27.7, "unit": "s⁻¹"}, {"measurement": "kcat/Km", "setting": "purified protein [1]", "value": 17000, "unit": "M⁻¹ s⁻¹"}, {"measurement": "Km", "setting": "purified protein [2]", "value": 2673, "unit": "µM"}, {"measurement": "kcat", "setting": "purified protein [2]", "value": 5.63, "unit": "s⁻¹"}, {"measurement": "kcat/Km", "setting": "purified protein [2]", "value": 2110, "unit": "M⁻¹ s⁻¹"}]}
